Reference: patent US20070065429A1, “Nogo-receptor antagonists for the treatment of conditions involving amyloid plaques” (Biogen Idec MA Inc., priority 2003, published 2007)

Columns and labels:
Aβ peptides = experiment: Aβ peptide binding to wells coated with purified sNgR-Fc
Protocol: We analyzed whether Aβ (1-28) binding competed for NgR binding with other known ligands for NgR by allowing 250 nM soluble AP-Aβ(1-28) or AP-Nogo (1-33) to bind to wells coated with purified sNgR310-Fc in the presence of various concentrations of competing free Aβ. […] We observed that the Aβ peptides bind to both sNgR310-Fc and sNgR344-Fc. […] However, Aβ(1-28) displaced Aβ-AP binding but not AP-Nogo-66 (1-33) or AP-OMgp binding in competition assays. The Aβ peptide may begin to displace AP-MAG very slightly at high concentrations in our experiments. Thus, the Aβ binding site on NgR appears largely distinct from that for the myelin ligands NogoA, OMgp and MAG. Consistent with this, the presence of Aβ had little effect on myelin or Nogo-66 inhibition of neurite outgrowth.

[1] = test system: APPsw/PSEN-1(DeltaE9) double transgenic mice; experiment: Intracerebroventricular infusion into APPsw/PSEN-1(DeltaE9) double transgenic mice; type: in vivo; settings: 2.5 mg per mouse over 56 days
Text: To examine the role of the NgR/APP/AB interactions in vivo, sNgR310-Fc (a NgR antagonist; see International Patent Application PCT/US03/25004) was infused into APPsw/PSEN-1(DeltaE9) double transgenic mice (from Jackson Laboratories). The sNgR310-Fc protein contains the entire LRR ligand-binding of the NgR fused to the Fc portion of IgG. To administer sNgR310-Fc protein, 5-month-old mice were anesthetized with isoflurane/oxygen and a burr hole was drilled in the skull. A cannula (ALZET brain infusion kit II, Alza Scientific Products, Palo Alto, Calif.) was introduced into the right lateral ventricle at stereotaxic coordinates 0.6 mm posterior and 1.2 mm lateral to bregma and 4.0 mm deep to the pial surface. The cannula was held in place with cyanoacrylate and the catheter was attached to a subcutaneous osmotic minipump (Alzet 2ML4). The pump delivered 2.5 μl/hr for 28 days of a 1.2 mg/ml solution of sNgR310-Fc or rat IgG in PBS (control mice received rat IgG since both the NgR and the Pc moiety were of rat origin). Pumps were replaced after 28 days and connected to the same cannula. The total dose of protein infused was 2.5 mg per mouse over 56 days. At the end of this period, mice were sacrificed and brain AB levels were measured using an ELISA kit from Biosource International according to the manufacturer's instructions. Aβ deposition into amyloid plaques was assessed by anti-Aβ immunohistochemistry as follows. Aβ plaques in sagittal sections of 4% paraformaldehyde fixed brain were detected immunohistologically with anti-Aβ(1-17) 6E10 antibody after 0.1 M formic acid treatment for antigen recovery. Plaque area was quantitated using NIH Image as a percentage of cerebral cortical area for 3 sections from each animal.

NgR = molecular target: T1, NgR (Homo sapiens, UniProt Q9BZR6); experiment: AP-Aβ(1-28) fusion protein binding to NgR-expressing COS cells; settings: not to vector-transfected COS cells
T1 construct: expressed in transfected cells; host or cells: COS cells
T1 sequence (Q9BZR6 27-473): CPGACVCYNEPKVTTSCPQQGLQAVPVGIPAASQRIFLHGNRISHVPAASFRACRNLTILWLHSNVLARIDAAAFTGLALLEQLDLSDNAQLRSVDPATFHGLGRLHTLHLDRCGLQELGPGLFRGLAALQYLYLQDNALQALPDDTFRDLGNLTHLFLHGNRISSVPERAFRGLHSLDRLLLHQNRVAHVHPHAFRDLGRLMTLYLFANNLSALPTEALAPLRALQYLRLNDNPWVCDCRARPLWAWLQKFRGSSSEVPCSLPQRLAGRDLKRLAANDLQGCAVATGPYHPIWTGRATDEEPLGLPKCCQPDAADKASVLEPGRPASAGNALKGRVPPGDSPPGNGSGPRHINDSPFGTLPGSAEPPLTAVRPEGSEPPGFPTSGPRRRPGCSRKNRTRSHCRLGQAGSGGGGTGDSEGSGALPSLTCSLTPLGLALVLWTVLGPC
Text: We then investigated whether the Aβ region of APP is involved in its interaction with NgR—including whether the fibrillogenic Aβ42-3 peptide binds NgR. We created two fusion protein constructs containing alkaline phosphatase (AP) and the hydrophilic region of Aβ (amino acids 1-28) by fusing the coding sequence in frame with the signal sequence-6×His-placental alkaline phosphatase (AP) sequence of the vector pAP-6 (Nakamura et al., Neuron 2: 1093-1100, 1988). The AP-Aβ and Aβ-AP proteins both bound to NgR-expressing COS cells but not to vector-transfected COS cells. This binding was saturable with an apparent Kd of 60 nM. The interaction also was detected using purified Biotin-Aβ(1-40) in an ELISA-type assay with immobilized NgR.

B1: sNgR344-Fc: rat soluble NgR 344 Fc fusion (protein)
chain: CPGACVCYNEPKVTTSRPQQGLQAVPAGIPASSQRIFLHGNRISYVPAASFQSCRNLTILWLHSNALAGIDAAAFTGLTLLEQLDLSDNAQLRVVDPTTFRGLGHLHTLHLDRCGLQELGPGLFRGLAALQYLYLQDNNLQALPDNTFRDLGNLTHLFLHGNRIPSVPEHAFRGLHSLDRLLLHQNHVARVHPHAFRDLGRLMTLYLFANNLSMLPAEVLVPLRSLQYLRLNDNPWVCDCRARPLWAWLQKFRGSSSGVPSNLPQRLAGRDLKRLATSDLEGCAVASGPFRPFQTNQLTDEELLGLPKCCQPDAADKA
modifications: left off: a dimerising Fc or GST
notes: rat soluble NgR 344 Fc fusion
With B1 the “binding of Aβ peptides” value (Aβ peptides) was “bind”.

B2: sNgR310-Fc: contains the entire LRR ligand-binding of the NgR fused to the Fc portion of IgG; NgR and Fc of rat origin (protein)
chain: CPGACVCYNEPKVTTSRPQQGLQAVPAGIPASSQRIFLHGNRISYVPAASFQSCRNLTILWLHSNALAGIDAAAFTGLTLLEQLDLSDNAQLRVVDPTTFRGLGHLHTLHLDRCGLQELGPGLFRGLAALQYLYLQDNNLQALPDNTFRDLGNLTHLFLHGNRIPSVPEHAFRGLHSLDRLLLHQNHVARVHPHAFRDLGRLMTLYLFANNLSMLPAEVLVPLRSLQYLRLNDNPWVCDCRARPLWAWLQKFRGSSSGVPSNLPQRLAGRDLKRLATSDLEGCA
modifications: left off: a dimerising Fc or GST
notes: NgR and Fc of rat origin
With B2 the “deposition of immunoreactive Aβ into plaque” value ([1]; right lateral ventricle, vs rat IgG, anti-Aβ immunohistochemistry) was “significantly reduced”, the “decrease of total level of Aβ(1-40) in the brain” value ([1]; right lateral ventricle, ELISA) was 50% and the “decrease of total level of Aβ(1-42) in the brain” value ([1]; right lateral ventricle, ELISA) was 50%. For the same molecule, the “sAPPα levels in the brains” value ([1]; immunoprecipitation and immunoblot) was “decreased” and the “binding of Aβ peptides” value (Aβ peptides) was “bind”.

B3: AP-Aβ: fusion protein of alkaline phosphatase (AP) and the hydrophilic region of Aβ (amino acids 1-28) (protein)
chain: HHHHHHIIPVEEENPDFWNREAAEALGAAKKLQPAQTAAKNLIIFLGDGMGVSTVTAARILKGQKKDKLGPEIPLAMDRFPYVALSKTYNVDKHVPDSGATATAYLCGVKGNFQTIGLSAAARFNQCNTTRGNEVISVMNRAKKAGKSVGVVTTTRVQHASPAGTYAHTVNRNWYSDADVPASARQEGCQDIATQLISNMDIDVILGGGRKYMFRMGTPDPEYPDDYSQGGTRLDGKNLVQEWLAKRQGARYVWNRTELMQASLDPSVTHLMGLFEPGDMKYEIHRDSTLDPSLMEMTEAALRLLSRNPRGFFLFVEGGRIDHGHHESRAYRALTETIMFDDAIERAGQLTSEEDTLSLVTADHSHVFSFGGYPLRGSSIFGLAPGKARDRKAYTVLLYGNGPGYVLKDGARPDVTESESGSPEYRQQSAVPLDEETHAGEDVAVFARGPQAHLVHGVQEQTFIAHVMAFAACLEPYTACDLAPPAGTTDAAHPGDAEFRHDSGYEVHHQKLVFFAEDVGSNK
For B3, the “binding to NgR-expressing COS cells” value (NgR) was “bound”.
